# Experiment: soluble on expression in E. coli; label from the status in PepcDB or PDB records
row,Sequence,soluble on expression in E. coli
1,MNIIDELEWRGAVNQQTDEEGLRKLVEEKKISLYCGVDPTGDSMHIGHLIPFMMMKRFQLAGHHPVILIGGATGTIGDPSGRQSERQLQTLEVVQHNVDALTAQMKKLFDFGGNSEVKMVNNYDWTHEINIIEFLRDYGKNFSINSMLAKDIVASRLDTGISFTEFTYQILQAMDFHHLYTKEDVQLQIGGSDQWGNITSGLDLIRKLEGHEAKVFGLTIPLLLKSDGTKFGKSAGGAVWLDPEKTTPFEFYQFWVNTDDRDVVKYLKYFTFLTKERIDELAVKVETEPHKREAQKVLAEEMTKFVHGEEALLQAVKITAALFSGDIKSLTADEIEQGFKEMPTFQSSKETKNIVEWLVDLGIEPSRRQAREDINNGAISMNGEKVTDVGTDVTVENSFDGRFIIIRKGKKNYSLVKLG,soluble
2,MAKLSGSIDVPLPPEEAWMHASDLTRYREWLTIHKVWRSKLPEVLEKGTVVESYVEVKGMPNRIKWTIVRYKPPEGMTLNGDGVGGVKVKLIAKVAPKEHGSVVSFDVHLGGPALLGPIGMIVAAALRADIRESLQNFVTVFAG,soluble
3,MSTLEIKNLHAQVVPADESAAPKPILKGVNLTIKSGETHAIMGPNGSGKSTLAYTLSGHPRYEVTDGEVLLDGENILDMDIDERARAGLFLAMQYPTEIPGVSMANFLRSAATAVRGEAPKLREWVKEVKQAQQDLKIDKAFNERSVNEGFSGGEKKRHEVLQLDLLQPKFAVMDETDSGLDVDALRIVSEGINRYQEKSNGGILMITHYKRILNYVQPDFVHVFANGQIITSGGPELADDLEANGYDRFLA,not soluble
4,MGSDKIHHHHHHMILSRGRNYVFIHIPKTGGTALALALESRAMAGDEMLGDTPKAVKRRRRLHGTETRGRLWKHSTLADIEGLASREELRQMFAFTLVRNPFDRVVSLYHWLKEQSFDHPMVPLAHSLPFTSFVTDPLVMRALKSQPALSYMMQSDGYEHCSLYIRLEYFAKDAAPLFDHLGFALELPRVNESRRDPDWRVYYDSQAVDAVRTCCQLEIERFEYSFNDYPLSL,not soluble
5,MAHHHHHHMCSTNQKLACCSGDNVFDTKENENDSYPQMVNKQLPPKVLEPIVQNKIVEVPKEVYLEKIVEVPQIKTVERIVEQIRPVIKYKNVYKTKTVYVEKIKNVDRIIYQEKIVEVPQIKTVEKIVEVPVYVDRERIITAPRYMVVEKVIPVLKTTKKESVMEIPEVNCPNIDITQEVESKEEIQIEDLKENQTTSVVHEKDIQLLNDLNIQKMHSSATLNAEADQDTTADTIQNDNFCSTVSCKFLPMYDNFPKMQYSMCNGFPEREKRFSSINIYKSKEEGFPKIRISKTPQIIQRNCYCNYA,not soluble
6,GMSNLETAKAMIAAYNAQDVDTYVSYMTDDACEANYRGDVVREGKEGTRSGLAAAFARWPQNHAEIKDAQQVGTYVLMREHVTRGPATDGSPLVEPFDVVAVYSFEGDKCSRVEFIR,soluble
7,MSVSFMELGSADSAEAAANKVAHHVEQMMETSDFFDRLTQHGTTPVSGLGEKFYVKGAPEFVSTRRIPIPGELQMQMSNIHSEFSMGFFTQISRVWVVIDNNLYMWNYETNDDLAFFDSSDAAILKVSLVNIKPGVFEPEIQYGLVVGTISDICLYPVFDFVENGASSISIDSKRCFKIALDGATVNDISYTSNGRVFYTADDQLFEFVYEKQNGWFGSTNHKCRGVNQTASILGTLISLPFFGSSKEPLDQITIDKSRNIMYLLGRAGTVSVWDLGADGAACAKFLSVPISKIAHEAHILTQFGHDETSFHSITSIKALEASQSAALNLVATTAKGVRLYFSVSTGPQSTMAMFNNSGTPNERNRPQTSVRPQCLRVAHVRFAPGVTPASIYGDGPNGVSVVYADECTRL,not soluble
8,LAQPAMAMVGSRNATPQGLANADAFAEAASNAGFCIISGLAQGIDTAAHQGGLRGASSSMAIVGTGLDLVYPSRNHELAHKLANEGGLISEFPLGTPAISRNFPRRNRIISGMCHACLVVEATLYSGSLITARLALEQGREVMAIPGSIHSPLSKGCHALIKQGAKLVENIQDILDE,not soluble
9,MFARDIGIDLGTANVLIHVKGKGIVLNEPSVVAIDRNTGKVLAVGEEARSMVGRTPGNIVAIRPLKDGVIADFEITEAMLKYFINKLDVKSFFSKPRILICCPTNITSVEQKAIREAAERSGGKTVFLEEEPKVAAVGAGMEIFQPSGNMVVDIGGGTTDIAVLSMGDIVTSSSIKMAGDKFDMEILNYIKRKYKLLIGERTSEDIKIKVGTVFPGARSEELEIRGRDMVTGLPRTITVCSEEITEALKENAAVIVQAAKGVLERTPPELSADIIDRGVILTGGGALLHGIDMLLAEELKVPVLIAENPMHCVAVGTGIMLENIDKLPRRALK,not soluble
10,GMKVTNYQGATIDPYSKGLGMVPGTSIQLTDAARLEWNLLNEDVSLPAAVLYADRVEHNLKWMQAFVAEYGVKLAPHGKTTMAPQLFRRQLETGAWGITLATAHQVRAAYHGGVSRVLMANQLVGRRNMMMVAELLSDPEFEFFCLVDSVEGVEQLGEFFKSVNKQLQVLLELGVPGGRTGVRDAAQRNAVLEAITRYPDTLKLAGVELYEGVLKEEHEVREFLQSAVAVTRELVEQERFARAPAVLSGAGSAWYDVVAEEFVKASETGKVEVVLRPGCYLTHDVGIYRKAQTDIFARNPVAKKMGEGLLPALQLWAYVQSIPEPDRAIIGLGKRDSAFDAGMPEPARHYRPGNEAPRDIAASEGWEIFGLMDQHAYLRIPAGADLKVGDMIAFDISHPCLTFDKWRQVLVVDPAYRVTEVIETFF,soluble
11,PKQRCRAPACDHFGNAKCNGYCNECFQFKQMYG,soluble
12,MSLDYGINFWSDNDFIIEDGQVKINYKTKPAIIDIVKKVREEGYRGPLLLRFPHLIKKQVDKIFTHFETSIKQYHYKGQFKAVFPLKVNQFPNFVLPLVELSQNRCYGLEAGSKAELIIAMAYTNKGSPITVNGFKDKEMISLGFIAANMGHEITLTIEGLNELETIIEVAEEMGKPCPNIGLRIRLHSSGIGIWAKSGGINSKFGLTSTELLEGIRLLEKHKLIEKFTMIHFHIGSQISDISPLKKAMREAGNIYAELRKMGAKNLKSVNIGGGLAVEYTQHEGSPNRNYTLDEFAGDVVFSLKEIAKNKKEPEPDIYIESGRYIAASHALLVAPVLELFSQEYDEKALHLKDKNPQLIEELNELYNTVNEKYAIEYLHDSLDHMESLLTLFDLGYIDLQDRSNTEILVHLIIKKVIKILKHKNHSDIIRIQEQVQERYLLNCSFFQSLPDYWGLEQSFPVMPLDRLNKRPTRSASLWDITCDSDGEIGFDLNKPLFLHDVDVTTEEYFLGFFLVGAYQEVLGMRHNLFTHPTELSVEFEEDGTHSVTNLLEAQTILDVLDDLDYDTKEIERRLKQRIEDSELIDDETRKEVLGQLYVMLSENGYLRTITNGEGHHHHHH,soluble
13,MGKSSKPIQTTQNTTQTNAPPEWAKGIFERAAKDAMSFYNQGSGKAVYDGQRVAGLSDQTKNAINGLSNNTHNYDNNYLNGLATGQNSTSQNLKNMASGHEIGNNPYFKEALQNTLNKASDTINSSLAGAGRYGSGAHTGVLADELGSIATQALSQQYNQDVNNMMQANGMIDQANQNQLASANNFFQGQGQANLNALSGGGLLDANHQQQLDEERQKWEQQNNLDWDQLSKLLAAGTASAGNYGMQTEQRTQFTPQTKLNPWQTIGNVGTILGTFAGLSDRRAKENIREAGQKKGYTLYEYNYKGSPERYRGVMAQDVLRSNPEAVFYNNTTGLLHVDYDKLGFNMERVQ,not soluble
14,MKEKIITYLEEKGKSSVDDLASSLDMAGAQKFPSLIKEISKLESKGKLRFEQDGTISLRKKKEKKDQVTVTGIFRANKAGFGFVSIDEAEEDLFIGRNDVGHAVDGDTVEVAIKKVANRLKGTAAEARVVKIVEHSLKAVVGRFVLDDEKPPYIGYIKSKNQKITQKIYIKKEPIVLDGTEIIKVAIEKYPTRRYDYFVASVEDVIGHQDDVGIDVLEVLESMDIVSEFPDAVLKEAQSVPDAPSEKDLIGRVDLRKEITFTIDGADAKDLDDAVHVKLLDNGNFELGVHIADVSYYVKEGSALDGEALARGTSVYVTDRVVPMLPERLSNGICSLNPNLDRLTQSAIMEIDKHGRVLHYQITQTVINTSFRMTYSDVNAIIAGDKELTEQYDKIVPSIHYMVTLHKILEKMRERRGALNFDTSEAKILVNDKGFPMDIVLRQRGLAERMIESFMLAANECVAEHFAKKNLPFIYRIHEEPKAEKLQKFMDYASIFGVSIQGTASKISQTALQDFMKKIEGQPGSDVLSMMLLRSMQQARYSEYNHGHYGLAAQYYTHFTSPIRRYPDLLVHRLVREYDKANSEKVEHFAQIIPEIASQTSSLERRAIDAERVVEAMKKAEYMEEYVGQEFTGVVSSVVKFGLFVELPNTIEGLIHMTTLPEFYQFNERTLSLQGEKSGKVFRVGQSIKVKVLKADKETGDIDFAYLPSDFDIIEKLSRSKKEKPRPSRRSGDSKTKANKRSKRSALSQKKKKKPFYKEAVKKGGKHGKGSRKRRRSK,soluble
15,MDLMSFKEKEISKKDCLELFEDTENFFDVIKLADSIRKDIVGDTVTYVVNANINFTNVCSGTCKFCAFKAEHGDPNAFFLNPDEVAKKALEARKIGATEVCIQGGLLKEIDTYFQAEILKKVKKITEPYEEIVVHAFSPMEVKSAAENAGLSVNEALKILKENGLNSMPGTAAEILNDEIRSEICPTKLKTSEWIDVVTNAHKTGIKTTCTMMYGHIEENKHLAEHLSILRKIQKETGGFTEFVPLTFLHENAPLHHMERVKSGASGMLDLKTYAISRIFFKDYIKNIQTSWVKLGTKLSQVSLNCGANDIGGTLMEESISKAAGGSYGTFMSEEKLKDMILAVGRIPKQRNTAYEIIE,not soluble
16,TVEFRDLQGQRMIAVAENVASTPVVRDQLSDRSVERVLAPEVDRAVNLSGATLAEIVAPNGAVTVSSDPTRLGVPAELGASDVMTGRAWSGDVDVDGRRAIVGHVPILSATGDVLAVVTVSDDYPSVWDLLSSAG,not soluble
17,MVKEGWMVHYTSRDNLRKRHYWRLDSKCLTLFQNESGSKYYKEIPLSEILRISSPRDFTNISQGSNPHCFEIITDTMVYFVGENNGDSSHNPVLAATGVGLDVAQSWEKAIRQALM,soluble
18,MLKQLLEQATSNNGKARLYAFENTVELTNLIPPTVSYESGGNTLIVGPTAIIESAAAQLSQMNSLTLLSTDGEKGTNPELYYANSVQVSGFLGTFEVLIENHGSTNNLAKVAINSDCFDIVLDLCLNSCMSEEVPVPGYYPVGRGYPKLAEALEEIPTLMGTFDKPKFFRLDTDLCAHSSRGVKGCERCVDACPAGALSSEGSDKTGHRIEINPYLCQGVGTCATACPTEAIHYALPNPEDTQKFIERTLANYEQAGGLDPIVLICSSRHESYNVMALKALPDNVIPIVVEELPSVGIDTWFAALVNGATQVLFAASRFMPQTIIRVLNSEVGIAQELLDQLGIAKETIDILYLESLREGAPTLCTESFDLALGDLQGNKRQRLFTALDALSASRIPVENIVELPANAPYGTVSCESKDC,not soluble
19,MGSDKIHHHHHHMKASLEQSSLPCRRFGRTGLSMPVLSLGGMRFQQSWTDLEAEVITSESQQLLKDILERAVACGFHHVETARHYGSSERQLGWALRDVLDPQRLLQSKVPPREDPKVFEAELALSFERLGCERLDLVAIHGLNLSEHLEQTLRPGGCMDVLRRWQGDGRIGHVGFSTHGPTDLIVQAIETDAFDYVNLHWYFIYQDNDPALDAAARHDLGVFIISPTDKGGHLHSPSSQLLELCAPLHPIVFNDLFCLQDPRVHTISVGAARPSDLDRHLEAVDLLQSAAELLPPVQQRLVDAAQLALGEAWWTSWQRGLPPWQESPGEINLPILLWLHNLVEAWGMEGYAKARYGLLGSGSHWFPGANAEALDADVSETALREVLVNSPWCDQIPGLLRRLRNRLGGHPQQRLTSV,not soluble

# Reference: the DeepSol protein solubility set
